Measurements published in patent US20110020359A1, “METHODS AND COMPOSITIONS FOR TREATING NEURONAL DAMAGE OR DEGENERATION” (California Institute of Technology, priority 2009, published 2011).
Values belong to the molecule of their own block, whether it stands above or below them.

Columns and labels:
[1] = tested on: dissociated rat P5-9 CGN cultures; assay: Cerebellar granule neuron (CGN) neurite outgrowth assay; type: cell-based; details: PD98059 25; AG1478 15 nM; Y27632 5 μM; JNK inhibitor II 10 μM
Protocol: Nitric acid-treated, 15-mm round German glass coverslips are coated with P-Orn in pH 6-8.5 borate buffer (at approximately 50 μg/ml) for about 1 hr at 37° C. and 5% CO2. CSPGs (at approximately 1 μg/ml) or polysaccharides enriched in the CS-A, CS-C, or CS-E sulfation motifs (at approximately 1 μg/ml) are coated on the P-Orn-coated coverslips overnight at 37° C. and 5% CO2. Cerebella from P5-9 Sprague Dawley rats are dissected, purified as described above, and cultured on the coated coverslips at a cell density of about 200 cells/mm^2. Neurons are grown in DMEM/F12, 1% FBS, and N1 supplement for about 24 hr.
In one example, inhibitors against MEK (PD98059, 25 μM; Calbiochem), EGFR (AG1478, 15 nM; Calbiochem), ROCK (Y27632, 5 μM; Calbiochem) and JNK (JNK Inhibitor II, 10 μM; Calbiochem) are added in solution at the start of culturing, and neurons are grown for 24 hr. For neurite outgrowth experiments from p75 knockout mice, cerebella from P5-7 mice, either C57BL/6 wild-type or p75−/− knockout mice, are dissected and purified as described above. Neurons are plated at a density of 200-300 cells/mm2 and cultured for about 24 hr. Cells are then fixed in 4% PFA/10% sucrose, immunostained with neuronal specific anti-class III β-tubulin antibody (TUJ1; Covance), and evaluated for neurite outgrowth. Neurons are imaged using a Nikon TE2000-S fluorescent microscope and quantified using the NIH software Image J. Statistical analysis is performed using the one-way ANOVA; n=50-200 cells per experiment.
P7 rat CGNs are grown for 24 hours on CS-E (1 μg/ml) in the presence of the CS-E antibody (CS-E Ab; 10 μg/ml).

[2] = Carbohydrate microarray, binding to CS-E
Protocol: The concentrations of the solutions range from 250 nM to 40 μM, and are calibrated to one another using the carbazole assay for uronic acid residue. A given concentration of each polysaccharide is spotted five to ten times at different positions on the array. A boundary is created around the polysaccharide spots on the slides using a hydrophobic slide marker (Super Pap Pen, Research Products International) and the slides are blocked with 5-10% fetal bovine serum (FBS) in PBS with gentle rocking at 37 ° C. for about 1 hr, followed by a brief rinse with PBS. Human NgR-Fc or mouse EphB2-Fc (R & D Systems) is reconstituted in 1% BSA in PBS, added to the bound region on the slides in 100 μl quantities at a concentration of 1-2 μM, and incubated at room temperature for about 3 hr. The slides are briefly rinsed three times with PBS, and then incubated with a goat anti-human IgG antibody conjugated to Cy3 (1:5000 in PBS) for 1 hr in the dark with gentle rocking. After rinsing two times with PBS and once with H2O, the microarray is analyzed at 532 nm using a GenePix 5000a scanner, and fluorescence quantification is performed using GenePix 6.0. Binding of the anti-CS-E antibody is evaluated using 100 μl of a 1 μg/ml (˜7 nM) solution of antibody and a goat anti-mouse IgG secondary antibody conjugated to Cy3 (1:5000 in PBS). […]

[3] = Surface plasmon resonance, binding to CS-E-enriched polysaccharides; details: SPR; read-out: dissociation constant (Kd)
Protocol: Surface plasmon resonance experiments can be used to provide quantitative measurements of the binding kinetics or affinity between two or more molecules such as proteins, peptides, and small molecules. All experiments are performed on a Biacore T100 at 25° C. using a Sensor Chip CM5 with a running buffer composed of 0.01 M HEPES, pH 7.4, 0.15 M NaCl, 3 mM EDTA, 0.05% Surfactant P20 (HBS-EP^+). To analyze the binding of anti-CS-E antibody to the CS-E tetrasaccharide, both control and active flow cells are exposed to a 1:1 mixture of N-hydroxysuccinimide hydroxysuccinimide (NHS) and 1-ethyl-3,3-dimethylaminopropyl-carbodiimide (EDC) for 1-10 min at a flow rate of about 10 μL·min^−1. […] The kinetics of the anti-CS-E antibody/CS-E tetrasaccharide interaction is determined by approximately 300 s long injections of anti-CS-E antibody at about 30 μL·min^−1. The dissociation is monitored for about 900 s before the surface is regenerated with a 30 s injection of 6 M guanidine HCl. […] Affinity analysis is measured by injecting the antibody for about 3600 s at 5 μL·min^−1. […] The data is analyzed by plotting the response at equilibrium versus concentration and fitting the resulting curve to the Langmuir equation. […]
In another example, utilizing the surface plasmon resonance methods described, data was generated to quantify measurements of the binding kinetics between CS-E and the binding partner EphA4. […]

[4] = Pull-down with biotinylated CS-E; type: binding; details: COS-7 cell lysates, immunoblot
Description: Pull down assays can be useful for identifying proteins which bind to CS (e.g. CS-A, CS-C, or CS-E). Pull down assays can also be used for identifying agents that disrupt the binding between CS and a known binding partner. Full-length human p75 cDNA (amino acids 1-427; Open Biosystems) is ligated into a pcDNA3 vector (Invitrogen), modified to fuse an HA tag to the 5′ end of the insert. Human NgR (amino acids 27-473; imaGenes) is ligated into a modified pAPtag-5 vector (GenHunter) which fuses a secretion signal sequence and a c-myc tag to the 3′ end of the insert. COS-7 cells are transfected with either NgR-myc, p75-HA, or both using the Lipofectamine (Invitrogen) method. Cells are lysed about 2 days after transfection with 0.5-2% Triton X-100 in PBS containing a protease inhibitor mixture (Roche) by rocking for 15-90 min at 4° C. The lysates are clarified by centrifugation at 5-25,000 rpm for 1-30 min.
Biotin is attached to the free amino group of the residual core peptides of CS-C and CS-E polysaccharides (Seikagaku). […]
Biotinylated CS-C or CS-E (approximately 280 μg each) in 100-500 μl of PBS is added to streptavidin agarose resin (about 140 μl; Pierce) and incubated at room temperature for about 1 hr. […] NgR-myc and p75-HA are detected by immunoblotting with myc-tag (Cell Signaling) or HA-tag (Sigma) antibodies.

Molecule: COc1cccc(-c2cc(=O)c3ccccc3o2)c1N [PD98059]
rescue of CS-E- and CSPG-mediated inhibition of neurite outgrowth [1]: rescue

Molecule: O=C1c2ccccc2-c2n[nH]c3cccc1c23 [JNK inhibitor II]
rescue of CS-E- and CSPG-mediated inhibition of neurite outgrowth [1]: no effect

Molecule: COc1cc2ncnc(Nc3cccc(Cl)c3)c2cc1OC [AG1478]
rescue of CS-E- and CSPG-mediated inhibition of neurite outgrowth [1]: rescue

Molecule: C[C@@H](N)[C@H]1CC[C@H](C(=O)Nc2ccncc2)CC1 [Y27632]
rescue of CS-E- and CSPG-mediated inhibition of neurite outgrowth [1]: rescue

binding to CS-E-enriched polysaccharides on carbohydrate microarrays [2]: selectively bind
Kd [3]: 65 nM
B1: EfnA3: Ephrin A3, ligand that activates Eph receptors (protein, UniProt P52797 23-214, looked up)
Ephrin-A3: QGPGGALGNRHAVYWNSSNQHLRREGYTVQVNVNDYLDIYCPHYNSSGVGPGAGPGPGGGAEQYVLYMVSRNGYRTCNASQGFKRWECNRPHAPHSPIKFSEKFQRYSAFSLGYEFHAGHEYYYISTPTHNLHWKCLRMKVFVCCASTSHSGEKPVPTLPQFTMGPNVKINVLEDFEGENPQVPKLEKSISG

binding to CS-E-enriched polysaccharides on carbohydrate microarrays [2]: selectively bind
Kd [3]: 138 nM
B2: EfnB1: Ephrin B1, ligand that activates Eph receptors (protein, UniProt P98172 28-346, looked up)
Ephrin-B1: LAKNLEPVSWSSLNPKFLSGKGLVIYPKIGDKLDIICPRAEAGRPYEYYKLYLVRPEQAAACSTVLDPNVLVTCNRPEQEIRFTIKFQEFSPNYMGLEFKKHHDYYITSTSNGSLEGLENREGGVCRTRTMKIIMKVGQDPNAVTPEQLTTSRPSKEADNTVKMATQAPGSRGSLGDSDGKHETVNQEEKSGPGASGGSSGDPDGFFNSKVALFAAVGAGCVIFLLIIIFLTVLLLKLRKRHRKHTQQRAAALSLSTLASPKGGSGTAGTEPSDIIIPLRTTENNYCPHYEKVSGDYGHPVYIVQEMPPQSPANIYYKV

B3: myc-NgR1: full-length myc-tagged human NgR expressed in COS-7 cells (protein, UniProt Q9BZR6 1-473, looked up)
chain: MKRASAGGSRLLAWVLWLQAWQVAAPCPGACVCYNEPKVTTSCPQQGLQAVPVGIPAASQRIFLHGNRISHVPAASFRACRNLTILWLHSNVLARIDAAAFTGLALLEQLDLSDNAQLRSVDPATFHGLGRLHTLHLDRCGLQELGPGLFRGLAALQYLYLQDNALQALPDDTFRDLGNLTHLFLHGNRISSVPERAFRGLHSLDRLLLHQNRVAHVHPHAFRDLGRLMTLYLFANNLSALPTEALAPLRALQYLRLNDNPWVCDCRARPLWAWLQKFRGSSSEVPCSLPQRLAGRDLKRLAANDLQGCAVATGPYHPIWTGRATDEEPLGLPKCCQPDAADKASVLEPGRPASAGNALKGRVPPGDSPPGNGSGPRHINDSPFGTLPGSAEPPLTAVRPEGSEPPGFPTSGPRRRPGCSRKNRTRSHCRLGQAGSGGGGTGDSEGSGALPSLTCSLTPLGLALVLWTVLGPC
modifications: full-length myc tag
notes: full-length myc-tagged human NgR expressed in COS-7 cells
pull-down by CS-E [4]: Pull-down of full-length, native NgR by CS-E
